The text below walks through data of patent US11739161B2, “Methods for treating and diagnosing prostate cancer” (Tufts Medical Center, Inc., priority 2017, dated 2023).

Assay [1] concerns DU145 cells. Put plainly: Cell cycle analysis by flow cytometry. The following applies: exogenous RNASE4 1 μg/ml. The format is cell-based, human. The method, then: FIGS. 10A-E. RNASE4 induces prostate cancer cell proliferation and phosphorylation of AKT and S6. (A and B) Exogenous RNASE4 (1 μg/ml) stimulates cell proliferation (A) and cell cycle progression (B) of DU145 cells cultured in the presence of 2% FBS. Cell numbers were determined by MTT assay. […] (C) Time course of AKT and S6 phosphorylation of serum-starved DU145 cells by RNASE4 (1 μg/ml). Left panels, immunoblots; right panels, quantification of p-AKT and p-S6 normalized to total AKT and S6 by Image J analysis. […] Cells were pre-incubated with the inhibitors at the indicated concentrations for 1 hour prior to be stimulated by 1 μg/ml of RNASE4 for 5 minutes. Top panels, immunoblots; bottom panels, Image J quantification of p-AKT and p-S6 normalized to total AKT and S6. (E) Effect of AKT inhibitor MK-2206, PI3K inhibitors Wortmannin and LY294002, and mTOR inhibitor Rapamycin on RNASE4-induced cell proliferation. DU145 cells were serum-starved overnight, incubated with the inhibitors for 1 hour, and then treated with RNASE4 (1 μg/ml) for three days. Cell numbers were determined by MTT assay. Data shown are from a representative experiments in triplicates of 3 independent repeats. […]
FIGS. 17A-C. […] Cell numbers were determined by a Coulter counter. […] Cell cycle status was determined by flow cytometry. […] Bottom panels, tube length and number of loops counted from 5 randomly selected areas. […]
For orientation: In flow cytometry, cells or beads pass a laser one at a time.

The subject of assay [2] is DU145 cells. Put plainly: RNASE4 knockdown, cell proliferation (Coulter counter). It counts as cell-based, human. As to conditions: DU145, exogenous RNASE4 1 μg/ml. An excerpt:
FIGS. 14A-D. RNASE4 knockdown inhibits DU145 cell proliferation in vitro and colony formation in soft agar. (A) Immunoblot analysis of RNASE4 in DU145 cells stably transfected with shControl, shRNASE4-1, and shRNASE4-2. (B) qRT-PCR analysis of RNASE4 mRNA normalized to GAPDH in DU145 cells stably transfected with shControl, shRNASE4-1, and shRNASE4-2. (C) Effect of RNASE4 knockdown on cell proliferation. Cell numbers were counted by Coulter counter. Exogenous RNASE4, when presented, was at the concentration of 1 μg/ml. Data shown are from a representative experiment in triplicates of 3 independent experiments. (D) Effects of RNASE4 knockdown on colonies formation and growth of DU145 cells in soft agar. The same numbers of control and RNASE4 knockdown cells were seeded in soft agar, and grown in the absence or presence of 1 μg/ml of RNASE4 for 14 days. Colonies were counted and size measured on a Nikon Eclipse ti microscope. Top panels, representative images of colonies; scale bars=100 μm. Bottom panels, quantification of DU145 cell colonies and sizes in soft agar. Data shown are means±SEM of five randomly selected fields per dish from a representative experiment. **P≤0.01 and ***P≤0.001, by two-tailed Student's t test.
Lentiviral mediated shRNA system (pGIPZ, Open Biosystems) was used to generate control and RNASE4 knockdown cell lines. […]

B1: RNASE4: recombinant human RNASE4 protein from pET11 expression in E. coli, purified by reversed-phase HPLC; added exogenously (protein, UniProt P34096 29-147, looked up)
Ribonuclease 4: QDGMYQRFLRQHVHPEETGGSDRYCNLMMQRRKMTLYHCKRFNTFIHEDIWNIRSICSTTNIQCKNGKMNCHEGVVKVTDCRDTGSSRAPNCRYRAIASTRRVVIACEGNPQVPVHFDG
On to B1, for which, in assay [1], the G0/G1 population result is on record as “decreased” and the G2/S/M phase population result is “increased”. Further, in assay [2], the “rescue of the effect of RNASE4 knockdown on cell proliferation” value is listed as “able to rescue”.
